Source: publication PMC314469, “Protein Interaction Networks by Proteome Peptide Scanning” (PLoS Biology, 2004)

T1: Yhr016c SH3 (YSC84_YEAST), P32793
T1 chain: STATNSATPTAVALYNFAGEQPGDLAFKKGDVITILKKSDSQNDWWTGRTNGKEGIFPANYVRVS

T2: Myo5 SH3 (MYO5_YEAST), Q04439
T2 chain: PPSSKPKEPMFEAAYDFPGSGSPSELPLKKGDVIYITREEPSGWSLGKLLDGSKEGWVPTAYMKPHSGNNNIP

T3: Boi2 SH3 (BOI2_YEAST), P39969
T3 chain: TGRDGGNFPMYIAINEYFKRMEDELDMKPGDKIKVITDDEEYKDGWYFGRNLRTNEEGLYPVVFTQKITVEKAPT

T4: Yfr024 SH3 (LSB3_YEAST), P43603
T4 chain: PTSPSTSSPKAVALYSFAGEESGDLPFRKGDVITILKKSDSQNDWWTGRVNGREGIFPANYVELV

T5: Boi1 SH3 (BOI1_YEAST), P38041
T5 chain: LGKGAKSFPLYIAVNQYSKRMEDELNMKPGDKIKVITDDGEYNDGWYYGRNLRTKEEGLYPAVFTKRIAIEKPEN

T6: Rvs167 SH3 (RV167_YEAST), P39743
T6 chain: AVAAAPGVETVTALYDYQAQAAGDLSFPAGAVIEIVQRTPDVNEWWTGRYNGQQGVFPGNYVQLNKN

T7: Abp1 SH3 (ABP1_YEAST), P15891
T7 chain: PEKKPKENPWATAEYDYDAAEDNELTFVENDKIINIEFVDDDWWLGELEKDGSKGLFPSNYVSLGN

T8: BOI2 SH3 domain (Saccharomyces cerevisiae)
T8 chain: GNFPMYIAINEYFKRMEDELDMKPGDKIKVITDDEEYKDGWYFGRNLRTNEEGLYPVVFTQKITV


Columns and labels:
[1] = molecular target: T1, Yhr016c SH3 (YSC84_YEAST), P32793; assay: SPOT array
[2] = molecular target: T2, Myo5 SH3 (MYO5_YEAST), Q04439; assay: SPOT array
[3] = molecular target: T3, Boi2 SH3 (BOI2_YEAST), P39969; assay: SPOT array
[4] = molecular target: T4, Yfr024 SH3 (LSB3_YEAST), P43603; assay: SPOT array
[5] = molecular target: T5, Boi1 SH3 (BOI1_YEAST), P38041; assay: SPOT array
[6] = molecular target: T6, Rvs167 SH3 (RV167_YEAST), P39743; assay: SPOT array
[7] = molecular target: Sho1 SH3 (SHO1_YEAST), P40073; assay: SPOT array
Sequence of Sho1 SH3 (SHO1_YEAST), P40073 (P40073 295-366): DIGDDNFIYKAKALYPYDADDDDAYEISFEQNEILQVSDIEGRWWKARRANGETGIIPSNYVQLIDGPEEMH

[8] = molecular target: T7, Abp1 SH3 (ABP1_YEAST), P15891; assay: SPOT array
[9] = molecular target: T8, BOI2 SH3 domain (Saccharomyces …); assay: SPR; conditions: modification not given

Row | normalised SPOT signal, Boehringer light units (BLU); mean over the file's lines of this peptide [1] | normalised SPOT signal, Boehringer light units (BLU); mean over the file's lines of this peptide [2] | normalised SPOT signal, Boehringer light units (BLU); mean over the file's lines of this peptide [3] | normalised SPOT signal, Boehringer light units (BLU); mean over the file's lines of this peptide [4] | normalised SPOT signal, Boehringer light units (BLU); mean over the file's lines of this peptide [5] | normalised SPOT signal, Boehringer light units (BLU); mean over the file's lines of this peptide [6] | normalised SPOT signal, Boehringer light units (BLU); mean over the file's lines of this peptide [7] | normalised SPOT signal, Boehringer light units (BLU); mean over the file's lines of this peptide [8] | Kd [9] [µM] | Binder
1 | 4960 | 276 | 203 | 392 | 646 | 555 | 16700 | – | – | NIFQKQLPKMPKEY [YGR252W 122-135]
2 | 6.5 | 253 | 45.6 | 62.9 | 55.3 | 78.4 | 78.9 | 124 | – | LKDPKSFPPPPLKP [YBR108W 80-93]
3 | – | – | – | – | – | – | – | – | > 100 | NAPERAVPILPPRN [YBR108W peptide …]
4 | 54.9 | 137 | 0 | 205 | 154 | 53.6 | 13.1 | 102 | – | ENTPRPNPTQPRKP [YDR359C 772-785]
5 | 22.7 | 173 | 24.2 | 381 | 72.4 | 87.9 | 3.7 | – | – | NGTWKYNPTVPNEL [YPR151C 143-156]
6 | 9.2 | 159 | 15.3 | 19.6 | 22.8 | 50.4 | 37.8 | 224 | – | LQESKTVPQSPKKP [YOR058C 189-202]
7 | 150 | 382 | 37 | 751 | 412 | 68.7 | 86.4 | 1030 | – | KRNSKHAPFIPVKP [YPR095C 154-167]
8 | 15.9 | 210 | -0 | 242 | -0 | 68.4 | 44.7 | 224 | – | YTYSRNEPVIPTKP [YNL139C 1275-1288]
9 | 1 | 375 | 20.8 | 44.2 | 0 | 26.6 | 32.7 | 36.2 | – | TIEARVHPEPPNKP [YDR330W 403-416]
10 | – | – | – | – | – | – | – | – | > 100 | RGPPPLPPRANVQP
11 | 22.7 | 180 | 40.8 | 211 | 353 | 71.4 | 331 | 77200 | – | SKDKKTKPTPPPKP [YNL020C 602-615]
12 | 22.4 | 91.3 | 8.7 | 17 | 49.7 | 28 | 23.8 | 42.5 | – | VKPTKLEPENPQKP [YFL054C 234-247]
13 | 114 | 67400 | 26.1 | 6360 | 1170 | 1050 | 5190 | 80000 | – | RPKRRAPPPVPKKP [YIR003W 383-396]
14 | 107 | 73.7 | 22.4 | 668 | 184 | 54.8 | 34.7 | 519 | – | EYSPRPSPWLPSKP [YDR151C 76-89]
15 | – | – | – | – | – | – | – | – | > 100 | GTTNRGPPPLPPRA
16 | 602 | 178 | 10.5 | 3610 | 120 | 76.3 | 62.9 | 184 | – | VASSRTEPSTPSRP [YJL095W 1074-1087]
